According to patent publication US20260144882A1 (BIO THERA SOLUTIONS, published 2026):
Several values for one entry are separate records, joined by “and”; a condition that tells them apart may be missing. Equal values may be shown once. Read-outs that look alike come from different tables or passages of the source. One block for each binder: values may come before it.

Experiments:
[1] = biological target: T1, human Nectin-4 extracellular antigen hNectin-4-His (human, UniProt Q96NY8 32-349); test: ELISA, coated antigen
T1 construct: C-terminal 8xHis tag included
T1 sequence: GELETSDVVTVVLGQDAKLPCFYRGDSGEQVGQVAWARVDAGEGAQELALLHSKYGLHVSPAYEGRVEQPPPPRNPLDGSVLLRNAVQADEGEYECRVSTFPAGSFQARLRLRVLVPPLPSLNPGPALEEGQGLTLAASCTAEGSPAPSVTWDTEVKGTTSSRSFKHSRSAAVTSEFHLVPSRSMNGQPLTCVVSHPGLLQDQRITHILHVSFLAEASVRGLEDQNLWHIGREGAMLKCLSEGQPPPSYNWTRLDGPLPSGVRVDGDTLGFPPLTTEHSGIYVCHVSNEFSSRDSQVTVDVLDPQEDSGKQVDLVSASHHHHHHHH
Excerpt: (§1) The binding activity of the antibodies was detected by ELISA.
(§2) In this assay, the binding of different antibodies to human Nectin-4 homologous proteins hNectin-1 (ACRO, PV1-H5223), hNectin-2 (ACRO, PV2-H52E2), hNectin-3 (ACRO, PV3-H52E4), and hNectin-4-His was detected by ELISA to determine the specificity of the antibodies. For the methodology and procedures, see Example 4. Antigens of interest ([…]) were immobilized; after blocking, serially diluted antibodies (2-fold serially diluted from […]) were added, and HRP-labeled anti-human-Kappa secondary antibody was added for chromogenic reaction.

[2] = biological target: T2, hNectin-2 (ACRO, PV2-H52E2) (human, UniProt Q92692 32-360); test: ELISA, coated antigen
T2 construct: bought; construct not described
T2 sequence (looked up): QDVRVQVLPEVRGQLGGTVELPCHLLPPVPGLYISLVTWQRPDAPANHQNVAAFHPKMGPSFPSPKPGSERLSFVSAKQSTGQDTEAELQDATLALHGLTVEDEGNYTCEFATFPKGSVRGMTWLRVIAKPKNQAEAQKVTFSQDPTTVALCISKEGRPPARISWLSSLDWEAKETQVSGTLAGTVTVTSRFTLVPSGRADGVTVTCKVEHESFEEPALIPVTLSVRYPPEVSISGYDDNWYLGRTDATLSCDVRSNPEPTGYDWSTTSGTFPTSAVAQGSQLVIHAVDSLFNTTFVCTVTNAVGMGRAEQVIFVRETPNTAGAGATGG
Excerpt: as §1, §2

[3] = biological target: T3, hNectin-1 (ACRO, PV1-H5223) (human, UniProt Q15223 31-334); test: ELISA, coated antigen
T3 construct: bought; construct not described
T3 sequence (looked up): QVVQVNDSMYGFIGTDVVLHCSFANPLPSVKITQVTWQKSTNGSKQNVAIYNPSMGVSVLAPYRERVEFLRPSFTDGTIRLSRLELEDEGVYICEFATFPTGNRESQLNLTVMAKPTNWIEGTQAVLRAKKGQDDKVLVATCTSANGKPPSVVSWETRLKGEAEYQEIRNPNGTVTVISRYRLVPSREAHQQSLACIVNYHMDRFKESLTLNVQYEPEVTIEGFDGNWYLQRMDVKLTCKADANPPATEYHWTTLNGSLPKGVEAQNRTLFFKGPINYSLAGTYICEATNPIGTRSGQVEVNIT
Excerpt: as §1, §2

[4] = biological target: T1, human Nectin-4 extracellular antigen …; test: SPR, antibody on Protein A chip, hNectin-4-His analyte, 1:1 fit
Excerpt: In this study, the affinity of the antibodies for the human Nectin-4 extracellular antigen was detected by surface plasmon resonance (SPR) technique (BIAcore: GE Healthcare, T200).

[5] = biological target: T4, human Nectin-4, full length on cells (human, UniProt Q96NY8 32-510); test: flow cytometry, T-47D cells, antibody bound on ice, 0 h at 37 C
T4 construct: whole, on cells; T-47D cells positive for Nectin-4 expression; also called Nectin-4 on T-47D cells; CHO-Nectin-4
T4 sequence (looked up): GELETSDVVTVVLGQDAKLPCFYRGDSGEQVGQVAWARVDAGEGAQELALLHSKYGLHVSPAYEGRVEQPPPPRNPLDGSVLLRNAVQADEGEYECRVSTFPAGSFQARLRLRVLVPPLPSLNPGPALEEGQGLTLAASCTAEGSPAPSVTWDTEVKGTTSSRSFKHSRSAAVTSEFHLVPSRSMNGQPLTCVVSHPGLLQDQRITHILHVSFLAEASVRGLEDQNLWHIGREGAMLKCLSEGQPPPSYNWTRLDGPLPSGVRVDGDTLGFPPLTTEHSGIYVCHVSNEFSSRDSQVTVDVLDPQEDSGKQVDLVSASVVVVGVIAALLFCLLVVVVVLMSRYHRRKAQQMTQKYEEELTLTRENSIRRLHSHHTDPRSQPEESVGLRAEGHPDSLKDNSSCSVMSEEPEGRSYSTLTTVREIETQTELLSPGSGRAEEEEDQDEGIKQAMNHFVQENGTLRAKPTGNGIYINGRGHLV
Experimental: In this assay, the relative amount of antibodies remaining on the cell surface after co-incubation at 37° C. for a certain period of time was detected by FACS to reflect the endocytosis efficiency. The procedures are briefly described as follows: T-47D cells (human ductal breast cancer cells, derived from the Cell Bank of Chinese Academy of Sciences, Cat.No. TCHu 87); the antibodies of interest were adjusted to 10 µg/mL and co-incubated with the cells on ice for 1 h; the cells were washed 3 times with pre-cooled PBS, and then placed at 37° C. and incubated for 0 h, 2 h and 4 h; 0.2% N₃Na was added to stop the endocytosis reaction; the cells were washed with PBS thrice, followed by the addition of the PE-labeled anti-human Fc secondary antibody (Invitrogen 12-4998-82); the cells were incubated at 4° C. for 30 min; the red fluorescence signal was detected on a flow cytometer.

[6] = biological target: T4, human Nectin-4, full length on cells; test: flow cytometry on T-47D cells
Experimental: In this study, the binding activity of different antibodies to T-47D cells positive for Nectin-4 expression was detected by FACS, and the EC₅₀ for the binding of antibodies to the cells was analyzed by a four-parameter method. The procedures are briefly described as follows: T-47D cells (the Cell Bank of Chinese Academy of Sciences, TCHu 87) were trypsinized; the antibodies were serially diluted and co-incubated with T-47D cells at 4° C. for 0.5-1 h, followed by the addition of the secondary PE-labeled anti-human Fc antibody (Invitrogen, 12-4998-82); the signal intensity of red fluorescence was detected on a flow cytometer, and curves were plotted using Graphpad Prism and the EC₅₀ was calculated.

[7] = biological target: T1, human Nectin-4 extracellular antigen …; test: ELISA, coated antigen; remark: listed apart in the source

EC50 [1]: 0.041 µg/mL
Kd [4]: 4.97 nM
koff [4]: 0.003 s⁻¹
kon [4]: 605000 M⁻¹ s⁻¹
MFI (mean fluorescence intensity) 0 h [5]: 105000 MFI
EC50 [6]: 0.109 µg/mL and 0.727 nM
EC50 [7]: 0.043 µg/mL
B1: antibody 1G8 (antibody, human IgG1, kappa, V domains shown)
VH: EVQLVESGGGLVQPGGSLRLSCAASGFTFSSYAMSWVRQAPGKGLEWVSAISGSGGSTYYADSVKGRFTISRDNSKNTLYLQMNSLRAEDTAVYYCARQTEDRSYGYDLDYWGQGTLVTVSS
VL: DIQMTQSPSSLSASVGDRVTITCRASQGISSYLAWYQQKPGKAPKLLIYAASSLQSGVPSRFSGSGSGTDFTLTISSLQPEDFATYYCQQHYTTPPTFGQGTKVEIKR
binding result [2]: no binding (tested: 2-fold serially diluted from 2 g/mL)
binding result [3]: no binding (tested: 2-fold serially diluted from 2 g/mL)

EC50 [1]: 0.04 µg/mL
Kd [4]: 3.21 nM
koff [4]: 0.00261 s⁻¹
kon [4]: 813000 M⁻¹ s⁻¹
MFI (mean fluorescence intensity) 0 h [5]: 121000 MFI
EC50 [6]: 0.116 µg/mL and 0.77 nM
EC50 [7]: 0.036 µg/mL
B2: antibody 1F3 (antibody, human IgG1, kappa, V domains shown)
VH: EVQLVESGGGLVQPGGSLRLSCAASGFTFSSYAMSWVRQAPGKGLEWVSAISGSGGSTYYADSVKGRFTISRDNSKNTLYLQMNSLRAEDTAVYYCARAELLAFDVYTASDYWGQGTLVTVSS
VL: B1 VL
binding result [2]: no binding (tested: 2-fold serially diluted from 2 g/mL)
binding result [3]: no binding (tested: 2-fold serially diluted from 2 g/mL)

EC50 [1]: 0.045 µg/mL
Kd [4]: 2.77 nM
koff [4]: 0.00103 s⁻¹
kon [4]: 373000 M⁻¹ s⁻¹
MFI (mean fluorescence intensity) 0 h [5]: 104000 MFI
EC50 [6]: 0.156 µg/mL and 1.04 nM
EC50 [7]: 0.041 µg/mL
B3: antibody 10F4 (antibody, human IgG1, kappa, V domains shown)
VH: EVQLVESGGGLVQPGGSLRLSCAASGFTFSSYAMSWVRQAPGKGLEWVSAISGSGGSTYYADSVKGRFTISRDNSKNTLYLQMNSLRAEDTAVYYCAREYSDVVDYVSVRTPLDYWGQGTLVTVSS
VL: B1 VL
binding result [2]: no binding (tested: 2-fold serially diluted from 2 g/mL)
binding result [3]: no binding (tested: 2-fold serially diluted from 2 g/mL)
